Experimental data published in a protein production outcome set (Wang et al. 2014).

Test: label from the status in PepcDB records
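Note: failed if final PepcDB status was selected cloned or expressed and not failed if soluble or beyond.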

Sequence | protein production
MAEGSSLALPRVSASLHEPARAFSFRLDEGKSPWVEVVITIGSFPRCPEVTMMWPPPPTFSVFLLLLLSQVPSSRPQSPGTKKLRLVGPANRPEEGRLEVLHQGQWGTVCDDDFALQEATVACRQLGFESALTWAHSAKFGQGEGPIWLDNVRCLGTEDTLDQCGSNGWGVSDCRHSEDVGVVCHPRRQQGYHSEKVSNALGPQGRRLEEVRLKPILASAKRHSPVTEGAVEVRYEGHWRQVCDQGWTMNNSRVVCGMLGFPSQAPVNSHYYRKVWNLKMKDPKSRLNGLTKKNSFWIHRVDCLGTEPHLAKCQVQVAPGRGKLRPACPGGMHAVVNCVAGPHFQRQKPKPKRKESGAEELKVRLRSGAQVGEGRVEVLMNRQWGTVCDHRWNLISASVVCRQLGFGSAREALFGAQLGQGLGPIHLSEVRCRGYEQTIGDCLALEGSQNGCQHANDAAVRCNIPDMGFQNKVRLAGGRNSEEGVVEVQVEVNGVPRWGTVCSDHWGLTEAMVTCRQLGLGFANFAIKDTWYWQGTPEAKEVVMSGVRCSGTEMALQQCQRHGPVHCSHGSGRFSAGVACMNSAPDLVMNAQLVQETAYLEDRPLSMLYCAHEENCLSKSADHMDWPYGHRRLLRFSSQIYNLGRADFRPKAGRHSWIWHQCHRHYHSIEVFTHYDLLTLNGSKVAEGHKASFCLEDTNCPSGVQRRYACANFGEQGVAVGCWDTYRHDIDCQWVDITDVSPGDYIFQVVVNPTNDVAESDFSNNMIRCRCKYDGQRVWLHNCHTGDPYRPNAELSLEQEQRLRNNLI | failed
MAEHGETQADEEEEEQVWSWGAGTDGQLGTTKLQDELLPQLLSLTSLPSISMLACGGAHVIALTSGGKVFTWGRGSSGQLGHGDILNITLPKLVSFFDDSVITQAAAGWSHSGFVSDSGCIFTCGNGSFGQLGHGDTLSLSTPAKVSHFNNDSVKMVACGMRHSLVLFAGNQVCGFGSGKRGQLGFSSDRIKSVNLPCVVSGLKDVEVVRISANGDHSAAISADGQFFSWGRGFCGGPDVHAPQSLPSPLSFREVAVGWNHALLLTVDGEVFKLGSTLNKQPEKQQLQIDSSEALFEKVPDFDGVKVMQIAAGAEHSAAVTENGEVKTWGWGEHGQLGLGNTNDQTSPELVSLGSIDLRTKEIKVYCGSGFTYAVKRKQELSPTSS | failed
MAEILRLSPAICAYPDETYENLKIEVVLPGVEKENISFKVVEDGFYVKATKEGVEYTDSYAVCCPISPEKATATYSNGVLKVNVPYQQPFEKAVDVKIE | failed
MAEITENTKKILEVILNLKEGQVMSYRDVGALAGLPNGARQVSRILHSMSKKYELPWWRVVRSDRTIGLPEPAKSEQMELLKKEGISFTAQGKIIIEDELLLEHHHHHH | not failed
MAEKRTVRPFAGTERRAKGWIQEAALRMLNNNLHPDVAERPDELIVYGGIGKAARNWECYEAIVDTLLRLENDETLLIQSGKPVAVFRTHPDAPRVLIANSNLVPAWATWDHFHELDKKGLIMYGQMTAGSWIYIGSQGIVQGTYETFAEVARQHFGGTLAGTITLTAGLGGMGGAQPLAVTMNGGVCLAIEVDPARIQRRIDTNYLDTMTDSLDAALEMAKQAKEEKKALSIGLVGNAAEVLPRLVETGFVPDVLTDQTSAHDPLNGYIPAGLTLDEAAELRARDPKQYIARAKQSIAAHVRAMLAMQKQGAVTFDYGNNIRQVAKDEGVDDAFSFPGFVPAYIRPLFCEGKGPFRWVALSGDPEDIYKTDEVILREFSDNERLCHWIRMAQKRIKFQGLPARICWLGYGERAKFGKIINDMVAKGELKAPIVIGRDHLDSGSVASPNRETEGMKDGSDAIADWPILNALLNAVGGASWVSVHHGGGVGMGYSIHAGMVIVADGTKEAEKRLERVLTTDPGLGVIRHADAGYELAIRTAKEKGIDMPMLK | not failed
MAEKVKSGQVFNLLCIFSIFFFLFVLSVNVSADVDSERAVPSEDKTTTVWLTKIKRSGKNYWAKVRETLDRGQSHFFPPNTYFTGKNDAPMGAGENMKEAATRSFEHSKATVEEAARSAAEVVSDTAEAVKEKVKRSVSGGVTQPSEGSEEL | failed
MAELYVKPGNKERGWNDPPQFSYGLQTQTGGPKRTPLTKRVAAPQDGSPRAPETSGPPPVDHPPPSSKASRPPPMGSCPATGVEPPSSPVIESETLIEDVLRPLEQALEDCHGHTKKQVCDDISRRLALLREQWAGGKLSIPVKKRMALLVQELLHHQWDAADDIHRSLMVDHVTEVSQWMVGVKRLIAEKKSLSSEETKEEKFTVEPENQTIPGFQQPS | not failed
MAEPLQPDPGAAEDAAAQAVETPGWKAPEDAGPQPGSYEIRHYGPAKWVSTSVESMDWDSAIQTGFTKLNSYIQGKNEKEMKIKMTAPVTSYVEPGSGPFSESTITISLYIPSEQQFDPPRPLESDVFIEDRAEMTVFVRSFDGFSSAQKNQEQLLTLASILREDGKVFDEKVYYTAGYNSPVKLLNRNNEVWLIQKNEPTKENE | failed
MAERAMSVTPYWELTFDADGDVDGRERDRLLAQVAQRKVHDLVVFAHGWNNERSGATRLYSRFFQPVPALAPRARLGYVGVVWPSMIFPDEPIPDFPASVPAEVTAVARPALAKGARQALVEVFPDRATLVEQIARLLERHPDEEASLETFGQLVRLLVEARPQDPQDACAADTLATGGPVSGPEMLSGDTALVCRDFARALDRVASLHGTSAASGAVDFSFTPAGLWDGAHELLRQATYYAMKRRAGTVGERGLGRVLGRLAQAAPDVRVHLVGHSFGGRLVSFALRGLPAGVRTVKSVTLLQGAFSHYAFAARLPHDTHASGALHGLQSRIDGPLVCCYSHFDSALGTMYPLASRMAGDARSAAGELGADFDIGRTLGPRWGAMGHDGVQAVDGTRAFTLAEALRAELPASGCVNVDAAAVVKRGGPPTGAHSDIVHRELAQVVLAAGRIR | failed
MAERTLVKPCTSVPPTMVRVPNVTRADALAAARNPLALIAERWTPAPRTVRRAALAALVMAVVIVVTGGAVRLTGSGLGCPTWPKCTDDSLTTTSAMGFHGVIEFGNRMLTYVLCAAVGWAIIAARSQKPWRRSLTRLGWAQFWIVMSNAILGGIVVLVGLNPYTVAAHFLLSTALIAVATLMWQRACEGDGAPRPLVGKAVQQLVWFLVTASVLLIAVGTVVTGAGPHAGDSSDVERMPLDWETVSKLHAVLAWIVVTLTFALWFVLKAVDAPKGPLHRTRDLFLILLAQGVIGYVQYFTDLPEALVALHMLGSCLVWIGVLRVLLSLRERPEAVADLPGPSTESALTRA | failed
MAESVRLPTPYNRKTEIRPMFTEIILFLLDTVFTLFGMALLLRLWMQLSRLPSRNPVSQGVFQVTDWIVRPLRRIIPGLGGIDWATVFAAYLTAVAFLLCRALVLGADPLGFLPVILALGVLSMLKWGISMVMWVTLLMAVLSWVNPNSPLAAPIWHLTAPLLRPIQRVVPRLGGFDISPLILFVIAQILLMVIANVSRGVA | failed
MAETLITKPPLSLSFTSLSSMLPSLSLSTANRHLSVTDTIPLPNSNSNATPPLRIAIIGFGNYGQFLAETLISQGHILFAHSRSDHSSAARRLGVSYFTDLHDLCERHPDVVLLCTSILSIENILKTLPFQRLRRNTLFVDVLSVKEFAKTLLLQYLPEDFDILCTHPMFGPQSVSSNHGWRGLRFVYDKVRIGEERLRVSRCESFLEIFVREGCEMVEMSVTDHDKFAAESQFITHTLGRLLGMLKLISTPINTKGYEALLDLAENICGDSFDLYYGLFVYNNNSLEVLERIDLAFEALRKELFSRLHGVVRKQSFEGEAKKVHVFPNCGENDASLDMMRSEDVVVKYEYNSQVSGSVNDGSRLKIGIVGFGNFGQFLGKTMVKQGHTVLAYSRSDYTDEAAKLGVSYFSDLDDLFEEHPEVIILCTSILSTEKVLESLPFQRLKRSTLFVDVLSVKEFPRNLFLQTLPQDFDILCTHPMFGPESGKNGWNNLAFVFDKVRIGMDDRRKSRCNSFLDIFAREGCRMVEMSCAEHDWHAAGSQFITHTVGRLLEKLSLESTPIDTKGYETLLKLVENTAGDSFDLYYGLFLYNPNAMEQLERFHVAFESLKTQLFGRLHSQHSHELAKSSSPKTTKLLTS | failed
MAETVGMILCGGFGKRLRPLTEKIPKPLIEIKEGYTILDKQLFDLKNAGINTVYLLTGFLGERIEERYGDNYKGLRIEYVREEKPLGTLNAIRLGMEAIDGEKQCIIRNGDVVADLNIKKMIHLGEMSDYPLTMFITRMQSPYGIVETSGDKIINFREKPLLDYYINAGVYFSKGNLDFGDFESGDIEKTLFPLMAKENKLGYYREDGLFWMAIDTSKELEEIRKEYRNREDKPWGYEKILINTEKYLTKELFIREGYRTSFHYHEEKDETMYIISGSGYIEFDNRKEYFSKNDTIRIEPGERHSIVAMENTVLHEVSTPHLNDTVRVQDYYTRLEHHHHHH | not failed
MAEVERPQLYLVTPPEIDLEIFPDRLAAVLDSTEVACLRLALAGKDEDRIARTGDALREVAHARDVALVIENHVLMVERLGLDGVHLTDGARLVRKLRKDLGPDAILGAFCGRTRHEGINAAEAGADYVAFGPVGTTALGDGSLAEAELFGWWSEMIEVPVVAEGALTPEKVAELAPLTDFFAVGEEIWREEDAAAALRRLLAPLGLEHHHHHH | not failed
MAFLKVVPLEKALEVVQSFKISPGIEEVPIEKGLGRIAAEDIYSPIDVPPFDRATVDGYAVRAEDTFMASEASPVRLKVIGSVHAGEEPKFKLGKGEAAYISTGAMLPGNADAVIQFEDVERVNGEILIYKPAYPGLGVMKKGIDIEKGRLLVKKGERLGFKQTALLSAVGINKVKVFRKPKVAVISTGNEIVPPGNELKPGQIYDINGRALCDAINELGGEGIFMGVARDDKESLKALIEKAVNVGDVVVISGGASGGTKDLTASVIEELGEVKVHGIAIQPGKPTIIGVIKGKPVFGLPGYPTSCLTNFTLLVVPLLLRALGREGKIGKKVARLKHKVFSVKGRRQFLPVKLEGDLAVPILKGSGAVTSFIDADGFVEIPETVESLDEGEEVEVTLFKGW | not failed
MAFPQRKRTPSFSSSVLDSVYRSIDESDGLQSDLKGSINENVSSSSSSPSPNKKDDKLTTLRRAIMDEEHWLYARSSTTTTNSSDSSSFSSSEAESYRTKRRLRKLAEQGKRSGDERQRTKRTVMDNDSRLFSKSDDDKKPKAVKIIEELKRSKQPVSPGARLTSFLNSIFQSNAKKVKLCSVGKTTDVKSSSSKSCFSRTRNKTDNNNNNCKKLERSIRFYPVRVTIDGDCRDYAQKHITRVRKPIPEFTAKKSVKEEIKTNDHHTEFTCITRNIGLKDFVRSNKYEGKEEEEDAWSHSSSDLFELDSYRIGMGRYLKELPVYETTDFKTNQAIARSLLL | failed
MAFRITSQLRPVGNQFGGSRRFATTVADGAKQTYNKFSIMGEFAPVAIIGGFVGLAVLMAGHSLKQQLMHAPAISTRKNRRAAVAEVDDPENCVSSADKFINKSWLRKVGQIQDKSKAILSDPTRPNPFTTPRNAETLNSVGVAPKGI | failed
MAFRMSEQPRTIKIYNLLAGTNEFIGEGDAYIPPHTGLPANSTDIAPPDIPAGFVAVFNSDESSWHLVEDHRGKTVYDVASGDALFISELGPLPENVTWLSPEGEFQKWNGTAWVKDTEAEKLFRIREAEETKNNLMQVASEHIAPLQDAADLEIATEEEISLLEAWKKYRVLLNRVDTSTAQDIEWPALP | not failed
MAFSAPEPELSVVVPTLNEAETVATLLAALAAQRDVALELLLCDGGSTDGTAALVRGRAGDLPFPVTVTETPPGRGRQMNAGAAAARGATFLFLHADSIIADPLALRRGLDHLAAARRSDKRAAGHFRLRFAGDSPSPLAYRFYERKARLHRPGCTHGDQGLLIPREFFDQVGPFDEGLPILEDVRLAERIAAMGTWVLLPAEIITSARRFETEGLRERQTLNAILMNFAAIGWQQGVEELVAGYRSQDRSGRLRLGPHLARIAGLTAALPRQERLRLWYLTGGYVRGNAWQIPLFLDVRNAWRRGGDDGATPLLSLHDRWFDLLTDNPAGRAAAALMTFLWFRLTLRREMKDWPGILRTPLEHHHHHH | failed
MAFSPLCGVNCTSRPSASTINTFLTKAQHDVTLTDTDTRIFIKNIKTGVTMEQFRNSLQEFGAMQVYFYEPGSNNDGWAWVGFENKEAALKVIEESEKMQEEMNEENLNEMQNEDNEEQGSNSFYAEDEDKKDEEEEEEEEEY | failed
